This note sets out measurements from paper PMC9693643, “Aminoquinolones and Their Benzoquinone Dimer Hybrids as Modulators of Prion Protein Conversion” (Molecules, 2022).

The series concerns the molecule itself. Description: RT-QuIC (seeded fibril conversion, thioflavin T fluorescence).

B1: murine recombinant full-length prion protein (PrP23-231) (natural protein)
chain: not shown
notes: also called recombinant PrP; PrP23-231 fibril seed
For B1, the binding result was “binds”.
